Target: purified recombinant human dimeric DPP-4 protein (dipeptidyl peptidase-4) (human), P27487
Assay: SEC
Settings: remark: other sources report otherwise

B1: purified recombinant human dimeric DPP-4 protein (dipeptidyl peptidase-4), P27487 29-766 (enzyme)
chain: NKGTDDATADSRKTYTLTDYLKNTYRLKLYSLRWISDHEYLYKQENNILVFNAEYGNSSVFLENSTFDEFGHSINDYSISPDGQFILLEYNYVKQWRHSYTASYDIYDLNKRQLITEERIPNNTQWVTWSPVGHKLAYVWNNDIYVKIEPNLPSYRITWTGKEDIIYNGITDWVYEEEVFSAYSALWWSPNGTFLAYAQFNDTEVPLIEYSFYSDESLQYPKTVRVPYPKAGAVNPTVKFFVVNTDSLSSVTNATSIQITAPASMLIGDHYLCDVTWATQERISLQWLRRIQNYSVMDICDYDESSGRWNCLVARQHIEMSTTGWVGRFRPSEPHFTLDGNSFYKIISNEEGYRHICYFQIDKKDCTFITKGTWEVIGIEALTSDYLYYISNEYKGMPGGRNLYKIQLSDYTKVTCLSCELNPERCQYYSVSFSKEAKYYQLRCSGPGLPLYTLHSSVNDKGLRVLEDNSALDKMLQNVQMPSKKLDFIILNETKFWYQMILPPHFDKSKKYPLLLDVYAGPCSQKADTVFRLNWATYLASTENIIVASFDGRGSGYQGDKIMHAINRRLGTFEVEDQIEAARQFSKMGFVDNKRIAIWGWSYGGYVTSMVLGSGSGVFKCGIAVAPVSRWEYYDSVYTERYMGLPTPEDNLDHYRNSTVMSRAENFKQVEYLLIHGTADDNVHFQQSAQISKALVDVGVDFQAMWYTDEDHGIASSTAHQHIYTHMSHFIKQCFSLP
percent present as dimer: 85%

Reference: paper PMC5683673
